Data published in article PMC6824469.
Substitutions are numbered along the chain they refer to.

B1: substrate-1 (RNA-1/Cy5 DNA) (DNA:RNA)
RNA: GGCACCAACACAAAACACAUCUACACUCAACAAU
DNA: GTAGATGTGTTTTGTGTTGGTGCC
B2: substrate-4 (RNA-4/Cy5 DNA) (DNA:RNA)
DNA 1: GGCACCAACACAAAACACATCTACACUCAACAAUCACUUU
DNA 2: GTAGATGTGTTTTGTGTTGGTGCC
modifications: DNA at nt 17-24 of strand 1 (proximal end of duplex)
B3: substrate-5 (RNA-5/Cy5 DNA) (DNA:RNA)
RNA: B2 DNA 1 with T20U, T22U
DNA: GTAGATGTGTTTTGTGTTGGTGCC
modifications: DNA at nt 9-16 of strand 1 (middle of duplex)

Target: Prp43p (rPrp43p);Ntr1p (1-120) (Saccharomyces cerevisiae (budding …, UniProt P53131;Q06411 1-767;1-120, |))
Test: EMSA

Prp43p (rPrp43p);Ntr1p (1-120) (Saccharomyces cerevisiae, sequence (P53131 whole entry, chain 1 of 2): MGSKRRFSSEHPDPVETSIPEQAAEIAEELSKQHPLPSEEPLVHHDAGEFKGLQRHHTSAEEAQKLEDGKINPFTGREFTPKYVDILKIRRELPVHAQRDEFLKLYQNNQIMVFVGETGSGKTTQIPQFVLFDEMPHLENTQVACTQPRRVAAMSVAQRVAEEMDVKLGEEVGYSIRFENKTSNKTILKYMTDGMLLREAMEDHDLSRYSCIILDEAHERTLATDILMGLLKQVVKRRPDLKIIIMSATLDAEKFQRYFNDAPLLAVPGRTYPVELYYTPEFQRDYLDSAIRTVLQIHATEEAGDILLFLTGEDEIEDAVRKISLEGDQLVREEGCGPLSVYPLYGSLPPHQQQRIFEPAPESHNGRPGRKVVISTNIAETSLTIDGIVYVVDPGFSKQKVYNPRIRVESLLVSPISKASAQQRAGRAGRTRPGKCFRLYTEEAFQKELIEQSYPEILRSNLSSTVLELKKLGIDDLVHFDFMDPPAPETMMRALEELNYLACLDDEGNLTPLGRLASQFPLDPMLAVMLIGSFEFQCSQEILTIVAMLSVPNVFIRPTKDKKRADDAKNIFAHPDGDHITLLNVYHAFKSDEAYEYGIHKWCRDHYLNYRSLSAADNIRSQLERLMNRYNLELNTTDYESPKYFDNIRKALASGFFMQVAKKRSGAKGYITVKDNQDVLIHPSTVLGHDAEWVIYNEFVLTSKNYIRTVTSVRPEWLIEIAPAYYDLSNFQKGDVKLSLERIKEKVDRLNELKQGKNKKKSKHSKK
Prp43p (rPrp43p);Ntr1p (1-120) (Saccharomyces cerevisiae, sequence (Q06411 1-120, chain 2 of 2): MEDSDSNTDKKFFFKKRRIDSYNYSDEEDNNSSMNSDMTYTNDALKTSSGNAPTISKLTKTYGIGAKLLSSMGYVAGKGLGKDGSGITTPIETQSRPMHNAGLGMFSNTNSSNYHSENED

Binding result, binds:
B1
B2
B3
